This is an account of results in patent US20120095193A1 (published 2012).

The chains are these.
T1: human ADAMTS5 (human, UniProt Q9UNA0 262-622, limits assumed)
T1 construct: Octet and ELISA used 'recombinant human ADAMTS5'; also called recombinant human ADAMTS5; ADAMTS5 (R&D Systems 2198-AD)
T1 sequence: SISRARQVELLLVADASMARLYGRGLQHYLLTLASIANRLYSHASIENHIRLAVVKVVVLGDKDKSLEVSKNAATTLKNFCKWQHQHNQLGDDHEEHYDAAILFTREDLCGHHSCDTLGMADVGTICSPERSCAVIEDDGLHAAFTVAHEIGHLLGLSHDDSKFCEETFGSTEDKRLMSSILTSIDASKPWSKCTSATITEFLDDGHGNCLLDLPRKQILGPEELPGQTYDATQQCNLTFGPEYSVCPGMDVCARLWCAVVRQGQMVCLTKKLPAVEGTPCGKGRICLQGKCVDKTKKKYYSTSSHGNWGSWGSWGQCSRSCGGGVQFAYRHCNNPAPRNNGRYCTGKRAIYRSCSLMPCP

B1: BPC1634 (antibody, human IgG1, kappa, V domains shown)
VH: EVQLVESGGGLVQPGGSLRLSCAASGFTFSDAWMDWVRQAPGKGLEWVAEIRNKANNHARHYAESVKGRFTISRDNAKNSLYLQMNSLRAEDTAVYYCARTYYYGSSYGYCDVWGQGTLVTVSS
VL: DIQMTQSPSSLSASVGDRVTITCRTSENIYSYLAWYQQKPGKAPKLLIYNAKTLAEGVPSRFSGSGSGTDFTLTISSLQPEDFATYYCQHHYGTPWTFGQGTKLEIKR
notes: Humanized, human gamma 1 / kappa; also called 7B4 H0L0; Humanized 7B4.1E11 H0L0
B2: BPC1644 (antibody, human IgG1, kappa, V domains shown)
VH: B1 VH with F29S, A99T
VL: B1 VL with I48V
notes: Humanized, human gamma 1 / kappa; also called 7B4 H3L1
B3: BPC1650 (antibody, human IgG1, kappa, V domains shown)
VH: B1 VH with F29S
VL: B1 VL with K45Q, I48V
notes: Humanized, human gamma 1 / kappa; also called 7B4 H2L2
B4: BPC1647 (antibody, human IgG1, kappa, V domains shown)
VH: B1 VH with F29S, N76D, L81V, A99T
VL: B1 VL with I48V
notes: Humanized, human gamma 1 / kappa; also called 7B4 H6L1
B5: BPC1654 (antibody, human IgG1, kappa, V domains shown)
VH: B1 VH with F29S, N76D, L81V, A99T
VL: B1 VL with K45Q, I48V
notes: Humanized, human gamma 1 / kappa; also called 7B4 H6L2
B6: BPC1643 (antibody, human IgG1, kappa, V domains shown)
VH: B1 VH with F29S
VL: B1 VL with I48V
notes: Humanized, human gamma 1 / kappa; also called 7B4 H2L1
B7: BPC1646 (antibody, human IgG1, kappa, V domains shown)
VH: B1 VH with F29S, L81V, A99T
VL: B1 VL with I48V
notes: Humanized, human gamma 1 / kappa; also called 7B4 H5L1
B8: BPC1639 (antibody, human IgG1, kappa, V domains shown)
VH: B1 VH with F29S, L81V, A99T
VL: B1 VL
notes: Humanized, human gamma 1 / kappa; also called 7B4 H5L0
B9: BPC1649 (antibody, human IgG1, kappa, V domains shown)
VH: B1 VH with A99T
VL: B1 VL with K45Q, I48V
notes: Humanized, human gamma 1 / kappa; also called 7B4 H1L2
B10: BPC1648 (antibody, human IgG1, kappa, V domains shown)
VH: B1 VH
VL: B1 VL with K45Q, I48V
notes: Humanized, human gamma 1 / kappa; also called 7B4 H0L2
B11: BPC1641 (antibody, human IgG1, kappa, V domains shown)
VH: B1 VH
VL: B1 VL with I48V
notes: Humanized, human gamma 1 / kappa; also called 7B4 H0L1
B12: BPC1640 (antibody, human IgG1, kappa, V domains shown)
VH: B1 VH with F29S, N76D, L81V, A99T
VL: B1 VL
notes: Humanized, human gamma 1 / kappa; also called 7B4 H6L0
B13: BPC1652 (antibody, human IgG1, kappa, V domains shown)
VH: B1 VH with F29S, N76D, A99T
VL: B1 VL with K45Q, I48V
notes: Humanized, human gamma 1 / kappa; also called 7B4 H4L2
B14: BPC1636 (antibody, human IgG1, kappa, V domains shown)
VH: B1 VH with F29S
VL: B1 VL
notes: Humanized, human gamma 1 / kappa; also called 7B4 H2L0
B15: BPC1637 (antibody, human IgG1, kappa, V domains shown)
VH: B1 VH with F29S, A99T
VL: B1 VL
notes: Humanized, human gamma 1 / kappa; also called 7B4 H3L0
B16: BPC1635 (antibody, human IgG1, kappa, V domains shown)
VH: B1 VH with A99T
VL: B1 VL
notes: Humanized, human gamma 1 / kappa; also called 7B4 H1L0
B17: BPC1651 (antibody, human IgG1, kappa, V domains shown)
VH: B1 VH with F29S, A99T
VL: B1 VL with K45Q, I48V
notes: Humanized, human gamma 1 / kappa; also called 7B4 H3L2
B18: BPC1642 (antibody, human IgG1, kappa, V domains shown)
VH: B1 VH with A99T
VL: B1 VL with I48V
notes: Humanized, human gamma 1 / kappa; also called 7B4 H1L1
B19: BPC1645 (antibody, human IgG1, kappa, V domains shown)
VH: B1 VH with F29S, N76D, A99T
VL: B1 VL with I48V
notes: Humanized, human gamma 1 / kappa; also called 7B4 H4L1
B20: BPC1653 (antibody, human IgG1, kappa, V domains shown)
VH: B1 VH with F29S, L81V, A99T
VL: B1 VL with K45Q, I48V
notes: Humanized, human gamma 1 / kappa; also called 7B4 H5L2
B21: BPC1638 (antibody, human IgG1, kappa, V domains shown)
VH: B1 VH with F29S, N76D, A99T
VL: B1 VL
notes: Humanized, human gamma 1 / kappa; also called 7B4 H4L0
B22: BPC1656 (antibody, human IgG1, kappa, V domains shown)
VH: EVQLLESGGGLVQPGGSLRLSCAASGFTFSDAWMDWVRQAPGKGLEWVSEIRHKANDHAIFYDESVKGRFTISRDNSKNTLYLQMNSLRAEDTAVYYCTSPFAYWGQGTLVTVSS
VL: DIQMTQSPSSLSASVGDRVTITCKASQSVGTTIVWYQQKPGKAPKLLIYSASNRHTGVPSRFSGSGSGTDFTLTISSLQPEDFATYYCQQYTSYPFTFGQGTKLEIKR
notes: Humanized, human gamma 1 / kappa; also called 12F4 H1L0
B23: BPC1657 (antibody, human IgG1, kappa, V domains shown)
VH: B22 VH with N76D
VL: B22 VL
notes: Humanized, human gamma 1 / kappa; also called 12F4 H2L0
B24: BPC1658 (antibody, human IgG1, kappa, V domains shown)
VH: B22 VH with S49A, L81V
VL: B22 VL
notes: Humanized, human gamma 1 / kappa; also called 12F4 H3L0

Residue numbers refer to the chain shown, from its start.

The first test deals with T1, human ADAMTS5. Description: Octet QK, antigen down, incl avidity. Background: In BLI a coated tip is dipped into the sample, and binding shifts an interference pattern.
The molecule B1 registered a Kd of 0.205 nM.

The next test concerns the target T1, human ADAMTS5. Kind of test: Biacore, mAb down, no avidity. (In SPR one partner is held on a chip, and binding of the other changes the refractive index at the surface.)
Consider B1, for which the Kd turned out to be 0.869 nM.

The target of another test is T1, human ADAMTS5. Description: Biacore, mAb from culture supernatant captured on anti-human IgG, ADAMTS5 (R&D 2198-AD) at 64 nM, 1:1 fit. The method, then: Anti-human IgG (Biacore™, BR-1008-39) was immobilized on a CM5 chip by primary amine coupling. This surface was then used to capture the humanized antibodies, ADAMTS5 (R&D Systems 2198-AD) was then passed over the captured antibody at a single concentration of 64 nM, regeneration was carried out using 100 mM phosphoric acid followed by 3M MgCl₂. The binding curves were double referenced with buffer injection (i.e. 0 nM) and the data was fitted to the T100 analysis software using the 1:1 model. The run was carried out at 25° C., using HBS-EP as the running buffer. All antibodies were captured from tissue culture supernatants unless specified.
The koff is the rate constant with which the complex falls apart. A lower koff goes with a long-lived complex. What is called kon is the second-order rate constant of association. A low value points to slow association. B2 gave a Kd of 1.05 nM, a koff of 0.00157 s⁻¹ and a kon of 1.49e+06 M⁻¹ s⁻¹.

B3 came in with a Kd of 1.09 nM, a koff of 0.00343 s⁻¹ and a kon of 3.14e+06 M⁻¹ s⁻¹.

Molecule B4 displayed a Kd of 0.978 nM, a koff of 0.00145 s⁻¹ and a kon of 1.48e+06 M⁻¹ s⁻¹.

Take B5: the Kd was determined as 1.09 nM, the koff came to 0.00114 s⁻¹ and the kon was 1.04e+06 M⁻¹ s⁻¹.

Turning to B6, the Kd is 1.05 nM, the koff was determined as 0.00143 s⁻¹ and the kon was determined as 1.36e+06 M⁻¹ s⁻¹.

B7: the Kd came to 1.03 nM, the koff was 0.00184 s⁻¹ and the kon came to 1.79e+06 M⁻¹ s⁻¹.

In turn, B8 registered a Kd of 0.964 nM, a koff of 0.000894 s⁻¹ and a kon of 927000 M⁻¹ s⁻¹.

The molecule B9 gave a Kd of 1.27 nM, a koff of 0.0013 s⁻¹ and a kon of 1.02e+06 M⁻¹ s⁻¹.

B10 came in with a Kd of 1.21 nM, an off-rate (koff) of 0.000951 s⁻¹ and a kon of 788000 M⁻¹ s⁻¹.

Take B11: the Kd is 1.32 nM, the off-rate (koff) is 0.000945 s⁻¹ and the kon stood at 714000 M⁻¹ s⁻¹.

Molecule B12 gave a Kd of 1.08 nM, a koff of 0.000849 s⁻¹ and a kon of 787000 M⁻¹ s⁻¹.

As for B13, the Kd is 1.08 nM, the koff came out at 0.00212 s⁻¹ and the kon came to 1.96e+06 M⁻¹ s⁻¹.

For B14, the Kd was 0.836 nM, the koff was determined as 0.000896 s⁻¹ and the kon is 1.07e+06 M⁻¹ s⁻¹.

B1: the Kd amounted to 0.869 nM, the koff was 0.000481 s⁻¹ and the kon was 554000 M⁻¹ s⁻¹.

The molecule B15 gave a Kd of 0.86 nM, a koff of 0.000963 s⁻¹ and a kon of 1.12e+06 M⁻¹ s⁻¹.

For B16, the Kd is 1.17 nM, the koff came out at 0.000826 s⁻¹ and the kon came to 704000 M⁻¹ s⁻¹.

For B17, the Kd was 1.19 nM, the koff is 0.00315 s⁻¹ and the kon turned out to be 2.65e+06 M⁻¹ s⁻¹.

B18 showed a Kd of 1.36 nM, a koff of 0.00121 s⁻¹ and a kon of 887000 M⁻¹ s⁻¹.

Take B19: the Kd came out at 1.04 nM, the koff was found to be 0.00116 s⁻¹ and the kon was determined as 1.12e+06 M⁻¹ s⁻¹.

B20 displayed a Kd of 1.16 nM, a koff of 0.0026 s⁻¹ and a kon of 2.24e+06 M⁻¹ s⁻¹.

B21: the Kd stood at 0.95 nM, the koff turned out to be 0.000831 s⁻¹ and the kon was determined as 875000 M⁻¹ s⁻¹.

B22: the Kd worked out at 0.624 nM, the koff came to 0.000395 s⁻¹ and the kon turned out to be 633000 M⁻¹ s⁻¹.

In turn, B23 registered a Kd of 0.129 nM, a koff of 7.54e-05 s⁻¹ and a kon of 585000 M⁻¹ s⁻¹.

B24 gave a Kd of 0.312 nM, an off-rate (koff) of 0.00014 s⁻¹ and a kon of 448000 M⁻¹ s⁻¹.
